For test [1], the target named is rabbit muscle actin (rabbit) (UniProt P68135). Briefly: surface plasmon resonance (BIAcore), F(ab)'2 immobilised, 0.3 µg rabbit muscle actin injected. Background: In SPR one partner is held on a chip, and binding of the other changes the refractive index at the surface.
The target in test [2] is A33 antigen on the surface of human colon cancer cells (human). Briefly: rosetting assay on LOVO cells.
Test [3] has the same target. Briefly: rosetting assay on SW403 cells.
Test [4] shares this target. Briefly: rosetting assay on LS 180 cells.
Test [5] has the same target. Briefly: rosetting assay on SNC-2B cells.
Test [6] shares this target. The test is described as follows: rosetting assay on SW1222 cells.
For test [7] the target is unchanged. The test is described as follows: rosetting assay on LS 174T cells.
For test [8] the target is unchanged. The test is described as follows: rosetting assay on LIM 1215 cells.
Test [9] shares this target. Briefly: rosetting assay on NCI-H508 cells.
Test [10] has the same target. The test is described as follows: rosetting assay on SK-CO-17 cells.
Test [11] has the same target. Briefly: rosetting assay on SK-CO-19 cells.
Test [12] has the same target. Briefly: rosetting assay on ASPC-1 (pancreatic) cells.
For test [13], the target named is rabbit muscle actin (rabbit) (UniProt P68135). Briefly: surface plasmon resonance (BIAcore), whole A33 immobilised, 0.3 µg rabbit muscle actin injected.

With “F(ab)'2 fragment of A33 humanized monoclonal antibody”, the signal at the end of the injection pulse (RU) in test [1] was 4 RU.

As for “monoclonal antibody A33 (mAb A33), murine immunoglobulin, isotype IgG2a, secreted by hybridoma ATCC No. HB 8779”, the Rosetting A. Titer in test [2] is 4096; in test [3], 8192; in test [4] it was 2048; in [5], 4096; in test [6], 4096; in test [7], 4096. The Rosetting A. Titer in test [8] came to 8192; in test [9] it was 4096; in test [10] it was 512; in test [11] it was 8192; in test [12], 8192.

In [13], “whole A33 (A33 IgG) immobilised on the biosensor surface (antibody)” gave a signal at the end of the injection pulse (RU) of 247 RU.

Values taken from patent US6291235.
